The target of assay [1] is wild type CXCL12 (stromal cell-derived factor-1/SDF-1) (UniProt P48061 22-93). Briefly: NMR titration.
In assay [2] the target is CXCL12_(1), constitutively monomeric CXCL12 variant (L55C/I58C) (UniProt P48061 22-93, L55C | I58C). The experiment in a line: NMR titration.

B1: 18SGDYDSM24, unsulfated Tyr21 peptide of CXCR4 (peptide)
peptide: Ac-SGDYDSM-NH2
With B1, the Kd in assay [1] is 2700 µM; in assay [2], 1500 µM.

B2: 9SDNsYTEE15, sTyr12 sulfopeptide of CXCR4 (peptide)
peptide: SDNYTEE
HELM: PEPTIDE1{[ac].S.D.N.[O=C([C@H](Cc1ccc(OS(=O)(=O)O)cc1)N[*:1])[*:2]].T.E.E.[am]}$$$$V2.0
SMILES: CC(=O)N[C@@H](CO)C(=O)N[C@@H](CC(=O)O)C(=O)N[C@@H](CC(N)=O)C(=O)N[C@@H](Cc1ccc(OS(=O)(=O)O)cc1)C(=O)N[C@H](C(=O)N[C@@H](CCC(=O)O)C(=O)N[C@@H](CCC(=O)O)C(N)=O)[C@@H](C)O
Consider B2, for which the Kd in assay [1] was found to be 1000 µM; in assay [2], 1800 µM.

B3: 9SDNYTEE15, unsulfated Tyr12 peptide of CXCR4 (peptide)
peptide: Ac-SDNYTEE-NH2
For B3, the figures for the Kd in assay [1] and in assay [2] were 2100 µM and 2700 µM, respectively.

B4: 4ISIYTSD10, unsulfated Tyr7 peptide of CXCR4 (peptide)
peptide: Ac-ISIYTSD-NH2
With B4, the figures for the Kd in assay [1] and in assay [2] were 1900 µM and 1100 µM, respectively.

B5: 18SGDsYDSM24, sTyr21 sulfopeptide of CXCR4 (peptide)
peptide: SGDYDSM
HELM: PEPTIDE1{[ac].S.G.D.[O=C([C@H](Cc1ccc(OS(=O)(=O)O)cc1)N[*:1])[*:2]].D.S.M.[am]}$$$$V2.0
SMILES: CSCC[C@H](NC(=O)[C@H](CO)NC(=O)[C@H](CC(=O)O)NC(=O)[C@H](Cc1ccc(OS(=O)(=O)O)cc1)NC(=O)[C@H](CC(=O)O)NC(=O)CNC(=O)[C@H](CO)NC(C)=O)C(N)=O
B5: the Kd came out at 1800 µM in assay [1] and 1600 µM in assay [2].

B6: 4ISIsYTSD10, sTyr7 sulfopeptide of CXCR4 (peptide)
peptide: ISIYTSD
HELM: PEPTIDE1{[ac].I.S.I.[O=C([C@H](Cc1ccc(OS(=O)(=O)O)cc1)N[*:1])[*:2]].T.S.D.[am]}$$$$V2.0
SMILES: CC[C@H](C)[C@H](NC(C)=O)C(=O)N[C@@H](CO)C(=O)N[C@H](C(=O)N[C@@H](Cc1ccc(OS(=O)(=O)O)cc1)C(=O)N[C@H](C(=O)N[C@@H](CO)C(=O)N[C@@H](CC(=O)O)C(N)=O)[C@@H](C)O)[C@@H](C)CC
With B6, the results for the Kd in assay [1] and in assay [2] were 4300 µM and 6100 µM, respectively.

The term Kd denotes a measure of binding affinity in units of concentration.

The values are drawn from PMC3783652 (ACS chemical biology, 2013).
